The assay deals with human CD16a (Val type) stably expressed on NK-92 cells (NK-92/CD16 transfectant) (human, UniProt P08637 17-254). As to the kind of experiment: cell-based or functional assay.
human CD16a (Val type) stably expressed on NK-92 cells (NK-92/CD16 transfectant), sequence (P08637 17-254 F176V): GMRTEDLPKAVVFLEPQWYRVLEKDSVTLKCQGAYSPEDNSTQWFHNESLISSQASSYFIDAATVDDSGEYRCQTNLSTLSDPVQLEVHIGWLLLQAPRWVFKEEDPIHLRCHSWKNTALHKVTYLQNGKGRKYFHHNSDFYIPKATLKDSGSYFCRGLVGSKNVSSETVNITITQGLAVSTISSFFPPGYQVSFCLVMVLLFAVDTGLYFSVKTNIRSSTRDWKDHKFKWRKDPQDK

B1: human IgG1 anti-human CCR4 antibody (KM2160), P230A/E233D/I332E (antibody)
heavy: EVQLVESGGDLMKPGGSLKISCAASGFIFSNYGMSWVRQTPDMRLEWVATISSASTYSYYPDSVKGRFTISRDNAENSLYLQMNSLRSEDTGIYYCGRHSDGNFAFGYWGRGTLVTVSAASTKGPSVFPLAPSSKSTSGGTAALGCLVKDYFPEPVTVSWNSGALTSGVHTFPAVLQSSGLYSLSSVVTVPSSSLGTQTYICNVNHKPSNTKVDKKVEPKSCDKTHTCPPCAAPALLGGPSVFLFPPKPKDTLMISRTPEVTCVVVDVSHEDPEVKFNWYVDGVEVHNAKTKPREEQYNSTYRVVSVLTVLHQDWLNGKEYKCKVSNKALPAPEEKTISKAKGQPREPQVYTLPPSRDELTKNQVSLTCLVKGFYPSDIAVEWESNGQPENNYKTTPPVLDSDGSFFLYSKLTVDKSRWQQGNVFSCSVMHEALHNHYTQKSLSLSPGK
light: DVLMTQTPLSLPVSLGDQASISCRSSRNIVHINGDTYLEWYLQRPGQSPKLLIYKVSNRFSGVPDRFSGSGSGTDFTLKISRVEAEDLGVYYCFQGSLLPWTFGGGTRLEIRRTVAAPSVFIFPPSDEQLKSGTASVVCLLNNFYPREAKVQWKVDNALQSGNSQESVTEQDSKDSTYSLSSTLTLSKADYEKHKVYACEVTHQGLSSPVTKSFNRGEC
Regarding B1, the “relative ADCC activity (AAA = 100)” value was 53 relative, AAA at 0.1 µg/mL = 100.

B2: human IgG1 anti-human CCR4 antibody (KM2160), G316D/A378V/D399E (antibody)
heavy: EVQLVESGGDLMKPGGSLKISCAASGFIFSNYGMSWVRQTPDMRLEWVATISSASTYSYYPDSVKGRFTISRDNAENSLYLQMNSLRSEDTGIYYCGRHSDGNFAFGYWGRGTLVTVSAASTKGPSVFPLAPSSKSTSGGTAALGCLVKDYFPEPVTVSWNSGALTSGVHTFPAVLQSSGLYSLSSVVTVPSSSLGTQTYICNVNHKPSNTKVDKKVEPKSCDKTHTCPPCPAPELLGGPSVFLFPPKPKDTLMISRTPEVTCVVVDVSHEDPEVKFNWYVDGVEVHNAKTKPREEQYNSTYRVVSVLTVLHQDWLNDKEYKCKVSNKALPAPIEKTISKAKGQPREPQVYTLPPSRDELTKNQVSLTCLVKGFYPSDIVVEWESNGQPENNYKTTPPVLESDGSFFLYSKLTVDKSRWQQGNVFSCSVMHEALHNHYTQKSLSLSPGK
light: DVLMTQTPLSLPVSLGDQASISCRSSRNIVHINGDTYLEWYLQRPGQSPKLLIYKVSNRFSGVPDRFSGSGSGTDFTLKISRVEAEDLGVYYCFQGSLLPWTFGGGTRLEIRRTVAAPSVFIFPPSDEQLKSGTASVVCLLNNFYPREAKVQWKVDNALQSGNSQESVTEQDSKDSTYSLSSTLTLSKADYEKHKVYACEVTHQGLSSPVTKSFNRGEC
B2: the “relative ADCC activity (AAA = 100)” value is -38 relative, AAA at 0.1 µg/mL = 100.

B3: human IgG1 anti-human CCR4 antibody (KM2160), K288N/A330S/P396L (antibody)
heavy: EVQLVESGGDLMKPGGSLKISCAASGFIFSNYGMSWVRQTPDMRLEWVATISSASTYSYYPDSVKGRFTISRDNAENSLYLQMNSLRSEDTGIYYCGRHSDGNFAFGYWGRGTLVTVSAASTKGPSVFPLAPSSKSTSGGTAALGCLVKDYFPEPVTVSWNSGALTSGVHTFPAVLQSSGLYSLSSVVTVPSSSLGTQTYICNVNHKPSNTKVDKKVEPKSCDKTHTCPPCPAPELLGGPSVFLFPPKPKDTLMISRTPEVTCVVVDVSHEDPEVKFNWYVDGVEVHNANTKPREEQYNSTYRVVSVLTVLHQDWLNGKEYKCKVSNKALPSPIEKTISKAKGQPREPQVYTLPPSRDELTKNQVSLTCLVKGFYPSDIAVEWESNGQPENNYKTTPLVLDSDGSFFLYSKLTVDKSRWQQGNVFSCSVMHEALHNHYTQKSLSLSPGK
light: DVLMTQTPLSLPVSLGDQASISCRSSRNIVHINGDTYLEWYLQRPGQSPKLLIYKVSNRFSGVPDRFSGSGSGTDFTLKISRVEAEDLGVYYCFQGSLLPWTFGGGTRLEIRRTVAAPSVFIFPPSDEQLKSGTASVVCLLNNFYPREAKVQWKVDNALQSGNSQESVTEQDSKDSTYSLSSTLTLSKADYEKHKVYACEVTHQGLSSPVTKSFNRGEC
On to B3, for which the “relative ADCC activity (AAA = 100)” value was -131 relative, AAA at 0.1 µg/mL = 100.

B4: human IgG1 anti-human CCR4 antibody (KM2160), K334E/T359N/T366S (antibody)
heavy: EVQLVESGGDLMKPGGSLKISCAASGFIFSNYGMSWVRQTPDMRLEWVATISSASTYSYYPDSVKGRFTISRDNAENSLYLQMNSLRSEDTGIYYCGRHSDGNFAFGYWGRGTLVTVSAASTKGPSVFPLAPSSKSTSGGTAALGCLVKDYFPEPVTVSWNSGALTSGVHTFPAVLQSSGLYSLSSVVTVPSSSLGTQTYICNVNHKPSNTKVDKKVEPKSCDKTHTCPPCPAPELLGGPSVFLFPPKPKDTLMISRTPEVTCVVVDVSHEDPEVKFNWYVDGVEVHNAKTKPREEQYNSTYRVVSVLTVLHQDWLNGKEYKCKVSNKALPAPIEETISKAKGQPREPQVYTLPPSRDELNKNQVSLSCLVKGFYPSDIAVEWESNGQPENNYKTTPPVLDSDGSFFLYSKLTVDKSRWQQGNVFSCSVMHEALHNHYTQKSLSLSPGK
light: DVLMTQTPLSLPVSLGDQASISCRSSRNIVHINGDTYLEWYLQRPGQSPKLLIYKVSNRFSGVPDRFSGSGSGTDFTLKISRVEAEDLGVYYCFQGSLLPWTFGGGTRLEIRRTVAAPSVFIFPPSDEQLKSGTASVVCLLNNFYPREAKVQWKVDNALQSGNSQESVTEQDSKDSTYSLSSTLTLSKADYEKHKVYACEVTHQGLSSPVTKSFNRGEC
Take B4: the “relative ADCC activity (AAA = 100)” value was -110 relative, AAA at 0.1 µg/mL = 100.

Values taken from patent publication US20230159662A1 (Kyowa Kirin, published 2023).
